Publication PMC8163212 (Chemical Science, 2020)

Target: the molecule itself
Experiment: SEC

B1: UVR8 mutant W198/250/302F (6Wd + 4Wc), on the W400F background (receptor)
chain: MAEDMAADEVTAPPRKVLIISAGASHSVALLSGDIVCSWGRGEDGQLGHGDAEDRPSPTQLSALDGHQIVSVTCGADHTVAYSQSGMEVYSWGWGDFGRLGHGNSSDLFTPLPIKALHGIRIKQIACGDSHCLAVTMEGEVQSWGRNQNGQLGLGDTEDSLVPQKIQAFEGIRIKMVAAGAEHTAAVTEDGDLYGWGFGRYGNLGLGDRTDRLVPERVTSTGGEKMSMVACGWRHTISVSYSGALYTYGFSKYGQLGHGDLEDHLIPHKLEALSNSFISQISGGWRHTMALTSDGKLYGWGFNKFGQVGVGNNLDQCSPVQVRFPDDQKVVQVSCGWRHTLAVTERNNVFAWGRGTNGQLGIGESVDRNFPKIIEALSVDGASGQHIESSNIDPSSGKSFVSPAERYAVVPDETGLTDGSSKGNGGDISVPQTDVKRVRI
Question: Does B1 bind?
Answer: binds
